Tests used:
HLA-B*27:05 = test: IEDB peptide-MHC binding, purified MHC/direct/fluorescence; filed as Kd, often an IC50 or EC50 that approximates it; ≥ and ≤ were set here for values at or beyond the usual limits of such assays
HLA-B*08:01 = test: as above
HLA-B*39:01 = test: as above; details: source organism: Brucella suis 1330
HLA-B*07:02 = test: as above
HLA-B*15:01 = test: as above
HLA-B*58:01 [1] = test: as above
HLA-A*31:01 = test: as above
HLA-A*26:01 = test: as above; details: source organism: Brucella abortus
HLA-A*69:01 = test: as above
HLA-A*02:01 [2] = test: as above
HLA-A*11:01 = test: as above
HLA-B*44:02 = test: as above
HLA-A*03:01 = test: as above
HLA-A*01:01 [3] = test: as above
HLA-B*40:01 = test: as above
HLA-B*57:01 [4] = test: IEDB peptide-MHC binding, purified MHC/competitive/radioactivity; filed as Kd, often an IC50 or EC50 that approximates it; ≥ and ≤ were set here for values at or beyond the usual limits of such assays
HLA-B*58:01 [5] = test: as above
HLA-B*53:01 = test: as above
HLA-A*29:02 = test: IEDB peptide-MHC binding, purified MHC/direct/fluorescence; filed as Kd, often an IC50 or EC50 that approximates it; ≥ and ≤ were set here for values at or beyond the usual limits of such assays
HLA-B*18:01 = test: as above; details: source organism: Mammarenavirus juninense
HLA-B*57:01 [6] = test: as above; details: source organism: Mammarenavirus juninense
HLA-B*46:01 = test: as above; details: source organism: Mammarenavirus juninense
HLA-B*48:01 = test: as above; details: source organism: Mammarenavirus juninense
HLA-A*32:01 = test: IEDB peptide-MHC binding, purified MHC/competitive/radioactivity; filed as Kd, often an IC50 or EC50 that approximates it; ≥ and ≤ were set here for values at or beyond the usual limits of such assays; details: source organism: Dengue virus 1 Brazil/97-11/1997
HLA-A*02:16 = test: IEDB peptide-MHC binding, purified MHC/competitive/fluorescence; filed as Kd, often an IC50 or EC50 that approximates it; ≥ and ≤ were set here for values at or beyond the usual limits of such assays; details: source organism: Entamoeba histolytica HM-1:IMSS
HLA-A*02:01 [7] = test: as above; details: source organism: Entamoeba histolytica HM-1:IMSS
HLA-A*01:01 [8] = test: IEDB peptide-MHC binding, purified MHC/competitive/radioactivity; filed as Kd, often an IC50 or EC50 that approximates it; ≥ and ≤ were set here for values at or beyond the usual limits of such assays; details: source organism: Dengue virus 3 Sri Lanka/1266/2000
HLA-B*51:01 = test: IEDB peptide-MHC binding, purified MHC/direct/fluorescence; filed as Kd, often an IC50 or EC50 that approximates it; ≥ and ≤ were set here for values at or beyond the usual limits of such assays; details: source organism: Yersinia pestis
[9] = source organism: Brucella melitensis
[10] = source organism: Brucella abortus
[11] = source organism: Dengue virus 4 Philippines/H241/1956
[12] = source organism: Dengue virus 3 Martinique/1243/1999
[13] = source organism: Mycobacterium tuberculosis
[14] = source organism: Mycobacterium tuberculosis str. Haarlem
[15] = source organism: Mammarenavirus juninense
[16] = source organism: Dengue virus 1 Brazil/97-11/1997

Sequence: GRDHVRVTL
- Kd (HLA-B*27:05; [9]): 315 nM
- Kd (HLA-B*08:01; [9]): 2560 nM
- Kd (HLA-B*39:01): 53 nM
- Kd (HLA-B*07:02; [10]): ≥ 20000 nM
- Kd (HLA-B*15:01; [10]): ≥ 20000 nM
- Kd (HLA-B*58:01 [1]; [10]): ≥ 20000 nM
- Kd (HLA-A*31:01; [10]): ≥ 20000 nM
- Kd (HLA-A*26:01): ≥ 20000 nM
- Kd (HLA-A*69:01; [10]): ≥ 20000 nM
- Kd (HLA-A*02:01 [2]; [10]): ≥ 20000 nM
- Kd (HLA-A*11:01; [10]): ≥ 20000 nM
- Kd (HLA-B*44:02; [10]): ≥ 20000 nM
- Kd (HLA-A*03:01; [10]): ≥ 20000 nM
- Kd (HLA-A*01:01 [3]; [10]): ≥ 20000 nM
- Kd (HLA-B*40:01; [9]): ≥ 5000 nM

Sequence: GTSETFSMGL
- Kd (HLA-B*57:01 [4]; [11]): 13500 nM

Sequence: IASLVMLLVH
- Kd (HLA-B*58:01 [5]; [11]): 1730 nM
- Kd (HLA-B*57:01 [4]; [11]): 435 nM

Sequence: IGIGVLLTW
- Kd (HLA-B*53:01; [12]): 1140 nM
- Kd (HLA-B*58:01 [5]; [12]): 11.6 nM
- Kd (HLA-B*57:01 [4]; [12]): 192 nM

Sequence: QASTTEAILP
- Kd (HLA-B*58:01 [5]; [12]): 1520 nM
- Kd (HLA-B*57:01 [4]; [12]): 1960 nM

Sequence: QTYMYTGQY
- Kd (HLA-A*01:01 [3]; [13]): 512 nM
- Kd (HLA-A*29:02; [14]): 17 nM

Sequence: QVKRREGMF
- Kd (HLA-B*27:05; [15]): ≥ 20000 nM
- Kd (HLA-B*08:01; [15]): 1550 nM
- Kd (HLA-B*18:01): ≥ 20000 nM
- Kd (HLA-B*07:02; [15]): ≥ 20000 nM
- Kd (HLA-B*58:01 [1]; [15]): ≥ 20000 nM
- Kd (HLA-A*31:01; [15]): ≥ 20000 nM
- Kd (HLA-A*69:01; [15]): ≥ 20000 nM
- Kd (HLA-A*02:01 [2]; [15]): ≥ 20000 nM
- Kd (HLA-A*11:01; [15]): ≥ 20000 nM
- Kd (HLA-B*44:02; [15]): ≥ 20000 nM
- Kd (HLA-A*03:01; [15]): ≥ 20000 nM
- Kd (HLA-A*01:01 [3]; [15]): ≥ 20000 nM
- Kd (HLA-A*29:02; [15]): ≥ 20000 nM
- Kd (HLA-B*57:01 [6]): ≥ 20000 nM
- Kd (HLA-B*46:01): ≥ 20000 nM
- Kd (HLA-B*48:01): ≥ 20000 nM
- Kd (HLA-B*40:01; [15]): ≥ 20000 nM

Sequence: RVWIEENPW
- Kd (HLA-A*32:01): 58 nM
- Kd (HLA-B*57:01 [4]; [16]): 2.7 nM

Sequence: SAHSADGHY
- Kd (HLA-A*01:01 [3]; [13]): ≥ 20000 nM
- Kd (HLA-A*29:02; [14]): 20 nM

Sequence: SLKERIDML
- Kd (HLA-A*02:16): 2.8 nM
- Kd (HLA-A*02:01 [7]): 1.3 nM

Sequence: TTLSLDYAW
- Kd (HLA-A*32:01): 114 nM
- Kd (HLA-B*53:01; [16]): 70.9 nM
- Kd (HLA-B*58:01 [5]; [16]): 1.66 nM
- Kd (HLA-B*57:01 [4]; [16]): 0.617 nM

Sequence: VSSVNMVSRL
- Kd (HLA-A*01:01 [8]): 10700 nM
- Kd (HLA-B*57:01 [4]; source organism: Dengue virus 3 Sri Lanka/1266/2000): 1030 nM

Sequence: WANDFNHHY
- Kd (HLA-B*07:02; source organism: Yersinia pestis): ≥ 20000 nM
- Kd (HLA-B*15:01; source organism: Yersinia pestis CA88-4125): 29 nM
- Kd (HLA-B*51:01): ≥ 20000 nM
